Reference: patent US7053185B1, “Lactalbumin production process” (HAMLET Pharma AB, priority 1997, dated 2006)

What was measured:
[1] = system: tumour cell lines; assay: Tumour cell line viability, vital dye (trypan blue); type: cell-based; settings: for activity compared with protein isolated from human milk casein: tumour cell lines
Description: The two peaks which are believed to contain MAL were kept separately and tested individually. Testing was carried out as described hereinafter in Example 4. Representative results are set out in Table 1.
(§1) The biological efficacy of the products obtained in the above Examples 1 and 2 above was tested using tumour cell lines as described in Hakansson et al (1995) supra. Cell lines were incubated with samples of the products at various concentrations in cell culture media at 37° C. for various time points. After incubation, the cells are harvested and the cell viability determined using a vital dye (trypan blue).

[2] = system: tumour cell lines; assay: Apoptosis: oligonucleosome length DNA fragments by agarose gel electrophoresis; type: cell-based; settings: material eluting at MAL position (1 M NaCl)
Description: as §1
(§2) Oligonucleosome length DNA fragments were detected by agarose gel electrophoresis. Cells (2×10^6) were lysed in 5 mM Tris, 20 mM EDTA, 0.5% Triton X-100 pH 8.0 at 4° C. for 1 hour and centrifuged at 13,000×g for 15 minutes. DNA was ethanol precipitated overnight in −20° C., treated with proteinase K and RNAse, loaded on 1.8% agarose gels and electrophoresed with constant voltage set at 50V overnight. DNA fragments were visualized with ethidium bromide using a 305 nm UV-light source and photographed using Polaroid type 55 positive-negative film.

[3] = system: cancer cells and immature cells; settings: cancer cells and immature cells versus healthy cells; cited from earlier work
[4] = system: L1210 cells; assay: Apoptosis-inducing activity / DNA fragmentation in L1210 cells; type: cell-based; settings: 0.7 mg/ml
Description: as §2
The lipid concentration was defined in “MAL equivalents” as the amount extracted from a defined mass of MAL. […] However, lipids from 0.5 or 1 mg of MAL had no effect on cell viability or DNA fragmentation. […] MAL lipids were not active at concentrations when intact MAL killed the cells.

Commercial bovine α-lactalbumin, untreated, MAL Peak 2: second MAL peak from commercial (Sigma) bovine α-lactalbumin run on casein trained column
Viability of tumour cells ([1]; Dosage 0.5 mg/ml): 98% | Viability of tumour cells ([1]; Dosage 1.0 mg/ml): 98%

Commercial bovine α-lactalbumin, untreated, MAL Peak 1: first MAL peak from commercial (Sigma) bovine α-lactalbumin run on casein trained column
Viability of tumour cells ([1]; Dosage 0.3 mg/ml): 50% | Viability of tumour cells ([1]; Dosage 0.5 mg/ml): 0%

B1: 2: multimeric product from monomeric bovine α-lactalbumin on matrix pre-run with human milk casein (protein, UniProt P00711 20-142, looked up)
Alpha-lactalbumin: EQLTKCEVFRELKDLKGYGGVSLPEWVCTTFHTSGYDTQAIVQNNDSTEYGLFQINNKIWCKDDQNPHSSNICNISCDKFLDDDLTDDIMCVKKILDKVGINYWLAHKALCSEKLDQWLCEKL
modifications: multimeric form
notes: multimeric product from monomeric bovine α-lactalbumin on matrix pre-run with human milk casein
activity compared with protein isolated from human milk casein [1]: similar

B2: Native, monomeric α-lactalbumin: native human milk α-lactalbumin converted to multimeric form on casein conditioned column, eluting at MAL position (protein, UniProt P00709 20-142, looked up)
Alpha-lactalbumin: KQFTKCELSQLLKDIDGYGGIALPELICTMFHTSGYDTQAIVENNESTEYGLFQISNKLWCKSSQVPQSRNICDISCDKFLDDDITDDIMCAKKILDIKGIDYWLAHKALCTEKLEQWLCEKL
modifications: multimeric form
notes: native human milk α-lactalbumin converted to multimeric form on casein conditioned column, eluting at MAL position
apoptosis-inducing / biological activity of converted material [2]: no apoptosis-inducing activity

B3: monomeric α-lactalbumin in the molten globule-like state: converted on clean matrix conditioned with lipids extracted from casein conditioned column; single peak at MAL position (protein, UniProt P00709 20-142, looked up)
Alpha-lactalbumin: B2 Alpha-lactalbumin
modifications: molten globule form
notes: converted on clean matrix conditioned with lipids extracted from casein conditioned column; single peak at MAL position
apoptosis-inducing / biological activity of converted material [2]: apoptosis-inducing activity

B4: Example 1: multimeric product from commercial monomeric human α-lactalbumin on matrix pre-run with human milk casein (protein, UniProt P00709 20-142, looked up)
Alpha-lactalbumin: B2 Alpha-lactalbumin
modifications: multimeric form
notes: multimeric product from commercial monomeric human α-lactalbumin on matrix pre-run with human milk casein
activity compared with protein isolated from human milk casein [1]: similar

B5: Human α-lactalbumin+, Untreated, MAL Peak 1: first peak from human milk α-lactalbumin (ammonium sulphate precipitation), untreated, casein trained column (protein, UniProt P00709 20-142, looked up)
Alpha-lactalbumin: B2 Alpha-lactalbumin
modifications: multimeric form
notes: first peak from human milk α-lactalbumin (ammonium sulphate precipitation), untreated, casein trained column
Viability of tumour cells ([1]; Dosage 1.0 mg/ml): 79%

B6: Human α-lactalbumin+, EDTA pre-treated, MAL Peak 2: second peak from EDTA pre-treated human milk α-lactalbumin, casein trained column (protein, UniProt P00709 20-142, looked up)
Alpha-lactalbumin: B2 Alpha-lactalbumin
modifications: multimeric form
notes: second peak from EDTA pre-treated human milk α-lactalbumin, casein trained column
Viability of tumour cells ([1]; Dosage ca. 1.5 mg/ml): 98%

B7: MAL: oligomeric complex of α-lactalbumin in molten globule-like state, from human milk casein by ion exchange, eluting at 1M NaCl (protein, UniProt P00709 20-142, looked up)
Alpha-lactalbumin: B2 Alpha-lactalbumin
modifications: oligomeric molten globule form
notes: oligomeric complex of α-lactalbumin in molten globule-like state, from human milk casein by ion exchange, eluting at 1M NaCl
apoptotic cell death [3]: induces apoptotic cell death in cancer cells and immature cells, but not in healthy cells | apoptosis induction (reduction of cell viability, DNA fragments) [4]: induced apoptosis

B8: Commercial human α-lactalbumin, Untreated, MAL Peak 2: second MAL peak from commercial (Sigma) human α-lactalbumin run on casein trained column (protein, UniProt P00709 20-142, looked up)
Alpha-lactalbumin: B2 Alpha-lactalbumin
modifications: multimeric form
notes: second MAL peak from commercial (Sigma) human α-lactalbumin run on casein trained column
Viability of tumour cells ([1]; Dosage 1.0 mg/ml): 0%

B9: Human α-lactalbumin+, EDTA pre-treatment + EDTA buffer, MAL Peak 2: second peak from EDTA treated human milk α-lactalbumin run with EDTA buffers on casein trained column (protein, UniProt P00709 20-142, looked up)
Alpha-lactalbumin: B2 Alpha-lactalbumin
modifications: multimeric form
notes: second peak from EDTA treated human milk α-lactalbumin run with EDTA buffers on casein trained column
Viability of tumour cells ([1]; Dosage 0.5 mg/ml): 89% | Viability of tumour cells ([1]; Dosage 1.0 mg/ml): 0%

B10: α-lactalbumin treated with EDTA: EDTA treated α-lactalbumin completely converted to oligomeric form on casein conditioned column (protein, UniProt P00709 20-142, looked up)
Alpha-lactalbumin: B2 Alpha-lactalbumin
modifications: oligomeric form
notes: EDTA treated α-lactalbumin completely converted to oligomeric form on casein conditioned column
apoptosis-inducing / biological activity of converted material [2]: significant biological activity

B11: Human α-lactalbumin+, Untreated, MAL Peak 2: second peak from human milk α-lactalbumin (ammonium sulphate precipitation), untreated, casein trained column (protein, UniProt P00709 20-142, looked up)
Alpha-lactalbumin: B2 Alpha-lactalbumin
modifications: multimeric form
notes: second peak from human milk α-lactalbumin (ammonium sulphate precipitation), untreated, casein trained column
Viability of tumour cells ([1]; Dosage 1.0 mg/ml): 95%

B12: Human α-lactalbumin+, EDTA pre-treatment + EDTA buffer, MAL Peak 1: first peak from EDTA treated human milk α-lactalbumin run with EDTA buffers on casein trained column (protein, UniProt P00709 20-142, looked up)
Alpha-lactalbumin: B2 Alpha-lactalbumin
modifications: multimeric form
notes: first peak from EDTA treated human milk α-lactalbumin run with EDTA buffers on casein trained column
Viability of tumour cells ([1]; Dosage 0.5 mg/ml): 0% | Viability of tumour cells ([1]; Dosage 1.0 mg/ml): 0%

B13: Commercial human α-lactalbumin, Untreated, MAL Peak 1: first MAL peak from commercial (Sigma) human α-lactalbumin run on casein trained column (protein, UniProt P00709 20-142, looked up)
Alpha-lactalbumin: B2 Alpha-lactalbumin
modifications: multimeric form
notes: first MAL peak from commercial (Sigma) human α-lactalbumin run on casein trained column
Viability of tumour cells ([1]; Dosage 0.5 mg/ml): 0% | Viability of tumour cells ([1]; Dosage 1.0 mg/ml): 0%

B14: Human α-lactalbumin+, EDTA pre-treated, MAL Peak 1: first peak from EDTA pre-treated human milk α-lactalbumin, casein trained column (protein, UniProt P00709 20-142, looked up)
Alpha-lactalbumin: B2 Alpha-lactalbumin
modifications: multimeric form
notes: first peak from EDTA pre-treated human milk α-lactalbumin, casein trained column
Viability of tumour cells ([1]; Dosage 1.0 mg/ml): 0%
